The source of these data is publication PMC10551896, “Methylation of the transcription factor E2F1 by SETD6 regulates SETD6 expression via a positive feedback mechanism” (The Journal of Biological Chemistry, 2023).

In the assay the target is T1, recombinant glutathione-S-transferase (GST)-tagged SETD6 (UniProt Q8TBK2 1-473).
T1 construct: SET domain-containing protein 6 (SETD6), a 53 kDa protein lysine methyltransferase; also called GST-SETD6; GST SETD6
T1 sequence (looked up): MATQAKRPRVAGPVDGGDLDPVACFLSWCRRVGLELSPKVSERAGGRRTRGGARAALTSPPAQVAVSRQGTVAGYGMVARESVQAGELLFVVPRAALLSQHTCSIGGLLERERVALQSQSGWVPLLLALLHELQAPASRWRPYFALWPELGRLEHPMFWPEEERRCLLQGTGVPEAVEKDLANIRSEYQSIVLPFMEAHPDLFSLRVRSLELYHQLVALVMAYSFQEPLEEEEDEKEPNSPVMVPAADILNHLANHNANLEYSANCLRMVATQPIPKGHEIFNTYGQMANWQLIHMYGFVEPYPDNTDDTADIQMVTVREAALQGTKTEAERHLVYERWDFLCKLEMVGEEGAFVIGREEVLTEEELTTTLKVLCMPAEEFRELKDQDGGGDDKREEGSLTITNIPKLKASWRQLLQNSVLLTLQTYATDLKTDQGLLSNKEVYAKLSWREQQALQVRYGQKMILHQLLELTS
The experiment in a line: ELISA; His-SUMO-E2F1 (2 ug) in PBS immobilised on a 96-well plate, 1 h room temperature, blocked with 3% BSA; 0.5 ug GST-SETD6 in 1% BSA in PBS and Tween-20 for 1 h at room temperature; detected with anti-GST and HRP-conjugated secondary antibody, absorbance at 450 nm. The conditions noted are these: both partners purified. For orientation: In an ELISA, binding on a coated surface is turned into a signal by an enzyme label.

B1: recombinant His-SUMO-E2F1 (natural protein)
chain: not shown
notes: the same insert was cloned into pET-SUMO and pGEX-6p1; also called His-SUMO-E2F1 WT; source: E. coli Rosetta, purified (nickel-nitrilotriacetic acid beads or HisTrap column)
For B1, the binding result is given as “binds”.
